Substitutions are numbered along the chain they refer to. Several values for one entry are separate records, joined by “and”; a condition that tells them apart may be missing. Equal values may be shown once. *1 amine or outer side, *2 acyl side, *3 side chain or, on linkers, in order; H or OH if unused. Bridges are numbered along the chain shown (N, C = ends). Where no end group is shown, it is not given here. Side-chain parts run from the residue outwards. [ ]: non-standard residue; d: D form. The star is where a group is joined. (mPEG)2 40 kDa = C3 = Cys(mPEG)240kDa, branched (mPEG)2, 40 kDa; Oxa12‑cholesterol = C10 = Cys(oxa12-cholesterol); γGlu = O=C(O)[C@H](CCC(=O)[*:2])N[*:1]; oxa12‑cholesterol = not defined here; Palmitoyl = CCCCCCCCCCCCCCCC(=O)*; Met(O) = CS(=O)CC[C@H](N)C(=O)O; Ac4c = NC1(C(=O)O)CCC1; Aib = CC(C)(N)C(=O)O
B1: OXM35 (peptide)
peptide: HSQGTFTSDYSKYLDSRRAQDFVQWLMNTKRNRNNIAC
modifications: D-Ser at position 2; C3 = Cys(mPEG)240kDa (branched (mPEG)2, 40 kDa) at position 38; C-terminal amide
B2: OXM67 (peptide)
peptide: B1 peptide with S2X
modifications: α-aminoisobutyric acid (Aib) at position 2; C1 = Cys(mPEG)5kDa at position 38; C-terminal amide
B3: OXM69 (peptide)
peptide: B1 peptide with S2X
modifications: Aib at position 2; C3 = Cys(mPEG)240kDa (branched (mPEG)2, 40 kDa) at position 38; C-terminal amide
B4: OXM99 (peptide)
peptide: B1 peptide with S2X
modifications: not fully specified; Aib at position 2; methionine sulfoxide at position 27; C3 = Cys(mPEG)240kDa (40 kDa) at position 38; C-terminal amide
B5: OXM100 (peptide)
peptide: B1 peptide with S2X
modifications: Aib at position 2; methionine sulfoxide at position 27; C6 = Cys(mPEG)260kDa (60 kDa) at position 38; C-terminal amide
B6: OXM417 (peptide)
peptide: H[Ac4c]QGTFTSDK([γGlu-γGlu-Palmitoyl])SKYLDERRAQDFVQWLMNTK-NH2
modifications: N-terminus assumed
SMILES: CCCCCCCCCCCCCCCC(=O)N[C@@H](CCC(=O)N[C@@H](CCC(=O)NCCCC[C@H](NC(=O)[C@H](CC(=O)O)NC(=O)[C@H](CO)NC(=O)[C@@H](NC(=O)[C@H](Cc1ccccc1)NC(=O)[C@@H](NC(=O)CNC(=O)[C@H](CCC(N)=O)NC(=O)C1(NC(=O)[C@@H](N)Cc2c[nH]cn2)CCC1)[C@@H](C)O)[C@@H](C)O)C(=O)N[C@@H](CO)C(=O)N[C@@H](CCCCN)C(=O)N[C@@H](Cc1ccc(O)cc1)C(=O)N[C@@H](CC(C)C)C(=O)N[C@@H](CC(=O)O)C(=O)N[C@@H](CCC(=O)O)C(=O)N[C@@H](CCCNC(=N)N)C(=O)N[C@@H](CCCNC(=N)N)C(=O)N[C@@H](C)C(=O)N[C@@H](CCC(N)=O)C(=O)N[C@@H](CC(=O)O)C(=O)N[C@@H](Cc1ccccc1)C(=O)N[C@H](C(=O)N[C@@H](CCC(N)=O)C(=O)N[C@@H](Cc1c[nH]c2ccccc12)C(=O)N[C@@H](CC(C)C)C(=O)N[C@@H](CCSC)C(=O)N[C@@H](CC(N)=O)C(=O)N[C@H](C(=O)N[C@@H](CCCCN)C(N)=O)[C@@H](C)O)C(C)C)C(=O)O)C(=O)O
B7: OXM411 (peptide)
peptide: H[dS]QGTFTSDK([γGlu-γGlu-Palmitoyl])SKYLDERRAQDFVQWLMNTK-NH2
modifications: N-terminus assumed
SMILES: CCCCCCCCCCCCCCCC(=O)N[C@@H](CCC(=O)N[C@@H](CCC(=O)NCCCC[C@H](NC(=O)[C@H](CC(=O)O)NC(=O)[C@H](CO)NC(=O)[C@@H](NC(=O)[C@H](Cc1ccccc1)NC(=O)[C@@H](NC(=O)CNC(=O)[C@H](CCC(N)=O)NC(=O)[C@@H](CO)NC(=O)[C@@H](N)Cc1c[nH]cn1)[C@@H](C)O)[C@@H](C)O)C(=O)N[C@@H](CO)C(=O)N[C@@H](CCCCN)C(=O)N[C@@H](Cc1ccc(O)cc1)C(=O)N[C@@H](CC(C)C)C(=O)N[C@@H](CC(=O)O)C(=O)N[C@@H](CCC(=O)O)C(=O)N[C@@H](CCCNC(=N)N)C(=O)N[C@@H](CCCNC(=N)N)C(=O)N[C@@H](C)C(=O)N[C@@H](CCC(N)=O)C(=O)N[C@@H](CC(=O)O)C(=O)N[C@@H](Cc1ccccc1)C(=O)N[C@H](C(=O)N[C@@H](CCC(N)=O)C(=O)N[C@@H](Cc1c[nH]c2ccccc12)C(=O)N[C@@H](CC(C)C)C(=O)N[C@@H](CCSC)C(=O)N[C@@H](CC(N)=O)C(=O)N[C@H](C(=O)N[C@@H](CCCCN)C(N)=O)[C@@H](C)O)C(C)C)C(=O)O)C(=O)O
B8: OXM416 (peptide)
peptide: H[Aib]QGTFTSDK([γGlu-γGlu-Palmitoyl])SKYLDERRAQDFVQWLMNTK-NH2
modifications: N-terminus assumed
SMILES: CCCCCCCCCCCCCCCC(=O)N[C@@H](CCC(=O)N[C@@H](CCC(=O)NCCCC[C@H](NC(=O)[C@H](CC(=O)O)NC(=O)[C@H](CO)NC(=O)[C@@H](NC(=O)[C@H](Cc1ccccc1)NC(=O)[C@@H](NC(=O)CNC(=O)[C@H](CCC(N)=O)NC(=O)C(C)(C)NC(=O)[C@@H](N)Cc1c[nH]cn1)[C@@H](C)O)[C@@H](C)O)C(=O)N[C@@H](CO)C(=O)N[C@@H](CCCCN)C(=O)N[C@@H](Cc1ccc(O)cc1)C(=O)N[C@@H](CC(C)C)C(=O)N[C@@H](CC(=O)O)C(=O)N[C@@H](CCC(=O)O)C(=O)N[C@@H](CCCNC(=N)N)C(=O)N[C@@H](CCCNC(=N)N)C(=O)N[C@@H](C)C(=O)N[C@@H](CCC(N)=O)C(=O)N[C@@H](CC(=O)O)C(=O)N[C@@H](Cc1ccccc1)C(=O)N[C@H](C(=O)N[C@@H](CCC(N)=O)C(=O)N[C@@H](Cc1c[nH]c2ccccc12)C(=O)N[C@@H](CC(C)C)C(=O)N[C@@H](CCSC)C(=O)N[C@@H](CC(N)=O)C(=O)N[C@H](C(=O)N[C@@H](CCCCN)C(N)=O)[C@@H](C)O)C(C)C)C(=O)O)C(=O)O
B9: OXM345 (peptide)
peptide: HSQGTFTSDYSKYLDSRRAQDFVQWLMNTKEEC
modifications: D-Ser at position 2; gamma-glutamic acid at positions 31 and 32; C4 = Cys(cholesterol) at position 33; C-terminal COOH
B10: OXM381 (peptide)
peptide: B9 peptide
modifications: D-Ser at position 2; gamma-glutamic acid at positions 31 and 32; C9 = Cys(mal-oxa12-cholesterol) at position 33; C-terminal COOH
B11: OXM399 (peptide)
peptide: B9 peptide
modifications: D-Ser at position 2; gamma-glutamic acid at positions 31 and 32; C10 = Cys(oxa12-cholesterol) at position 33; C-terminal COOH
B12: OXM380 (peptide)
peptide: B9 peptide
modifications: D-Ser at position 2; gamma-glutamic acid at positions 31 and 32; C7 = Cys(Oxa4-cholesterol) at position 33; C-terminal COOH
B13: OXM400 (peptide)
peptide: B9 peptide with S2X
modifications: Aib at position 2; gamma-glutamic acid at positions 31 and 32; C10 = Cys(oxa12-cholesterol) at position 33; C-terminal COOH
B14: OXM401 (peptide)
peptide: B9 peptide with S2X
modifications: Acb (1-amino-1-cyclobutane carboxylic acid) at position 2; gamma-glutamic acid at positions 31 and 32; C10 = Cys(oxa12-cholesterol) at position 33; C-terminal COOH
B15: OXM36 (peptide)
peptide: B1 peptide
modifications: not fully specified; D-Ser at position 2; C4 = Cys(cholest-5-en-3-yl{[(2R)-3-amino-2-(amino)-3-oxopropyl]thio}acetate) at position 38; C-terminal amide

molecular target: T1, human GLP-1 receptor (human, UniProt P43220 24-463); experiment: cell-based or functional assay

Binder | GLP-1R EC50
H[Aib]QGTFTSDYC((mPEG)2 40 kDa)KYLDSRRAQDFVQWL[Met(O)]NTKRNRNNIA-NH2 [OXM121] | > 125 nM
H[Aib]QGTFTSDYSC((mPEG)2 40 kDa)YLDSRRAQDFVQWL[Met(O)]NTKRNRNNIA-NH2 [OXM124] | > 100 nM
HSQGTFTSDYSKYLDSRRAQDFVQWLMNTKRNRNNIAC (D-Ser at position 2; C1 = Cys(mPEG)5kDa at position 38; C-terminal amide) [OXM33] | 115 nM
HSQGTFTSDYSKYLDSRRAQDFVQWLMNTKRNRNNIAC (D-Ser at position 2; C2 = Cys(mPEG)20kDa at position 38; C-terminal amide) [OXM34] | 195 nM
B1 | 716 nM
B2 | 5.8 nM
B3 | 6 nM
B4 | 7.4 nM
HXQGTFTSDYSKYLDSRRAQDFVQWLMNTKRNRNNIAC (Aib at position 2; C2 = Cys(mPEG)20kDa at position 38; C-terminal amide) [OXM68] | 8.3 nM
B5 | 22.5 nM

molecular target: T2, human glucagon receptor (human, UniProt P47871 26-477); experiment: cell-based or functional assay
T2 sequence (P47871 26-477): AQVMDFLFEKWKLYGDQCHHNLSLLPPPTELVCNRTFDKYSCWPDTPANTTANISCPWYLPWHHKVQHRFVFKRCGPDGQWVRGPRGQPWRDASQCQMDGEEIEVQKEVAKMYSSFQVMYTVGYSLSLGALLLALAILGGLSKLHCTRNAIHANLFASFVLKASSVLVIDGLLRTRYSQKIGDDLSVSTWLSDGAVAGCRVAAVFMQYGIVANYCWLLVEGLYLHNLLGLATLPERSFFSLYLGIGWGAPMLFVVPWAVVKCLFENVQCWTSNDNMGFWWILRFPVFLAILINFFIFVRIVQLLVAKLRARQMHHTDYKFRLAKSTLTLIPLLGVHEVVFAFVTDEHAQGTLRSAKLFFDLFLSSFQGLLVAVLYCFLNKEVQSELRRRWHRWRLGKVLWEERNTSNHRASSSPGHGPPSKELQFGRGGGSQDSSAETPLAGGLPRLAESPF

Binder | % Activation of GCGR | GCGR EC50
HSQGTFTSDYSKYLDSRRAQDFVQWLMNTKRNRNNIAC (D-Ser at position 2; C1 = Cys(mPEG)5kDa at position 38; C-terminal amide) [OXM33] | 78% | 75.3 nM
HSQGTFTSDYSKYLDSRRAQDFVQWLMNTKRNRNNIAC (D-Ser at position 2; C2 = Cys(mPEG)20kDa at position 38; C-terminal amide) [OXM34] | 61% | 616 nM
B1 | 71% | 142 nM
B2 | 73% | 138 nM
B3 | 46% | > 1000 nM
B4 | 66% | > 1000 nM
HXQGTFTSDYSKYLDSRRAQDFVQWLMNTKRNRNNIAC (Aib at position 2; C2 = Cys(mPEG)20kDa at position 38; C-terminal amide) [OXM68] | 58% | 601 nM
B5 | 22% | > 1000 nM

molecular target: T1, human GLP-1 receptor; experiment: cell-based or functional assay; remark: another data set of the same source

Binder | hGLP-1R + 20% Plasma EC50 | hGLP-1R EC50
H[Aib]QGTFTSDYSKYLDERRAKDFVQWLMNTK[γGlu][γGlu]C(Oxa12‑cholesterol)-OH (lactam 16-20) [OXM395] | 3.3 nM | 0.7 nM
B6 | 0.15 nM | –
HSQGTFTSDKSKYLDSRRAQDFVQWLMNTK (D-Ser at position 2; Lys(γE-γE-palmitoyl) at position 10; C-terminal amide) [OXM409] | 0.7 nM | –
H[dS]QGTFTSDYSKYLDERRAKDFVQWLMNTK[γGlu][γGlu]C(oxa12‑cholesterol)-OH (lactam 16-20; reading uncertain) [OXM392] | 3 nM | 0.03 nM
B7 | 0.1 nM | –
B8 | 0.09 nM | –
B9 | > 1000 nM | 5.1 nM
B10 | 1.9 nM | –
B11 | 5.7 nM | 0.05 nM
B12 | 30.7 nM | 0.3 nM
B13 | 1.9 nM | 0.07 nM
B14 | 2.9 nM | 0.23 nM

molecular target: T2, human glucagon receptor; experiment: cell-based or functional assay; remark: another data set of the same source

Binder | hGCGR + 20% plasma EC50 | hGCGR EC50
H[Aib]QGTFTSDYSKYLDERRAKDFVQWLMNTK[γGlu][γGlu]C(Oxa12‑cholesterol)-OH (lactam 16-20) [OXM395] | 119 nM | 10 nM
B6 | 0.4 nM | –
HSQGTFTSDKSKYLDSRRAQDFVQWLMNTK (D-Ser at position 2; Lys(γE-γE-palmitoyl) at position 10; C-terminal amide) [OXM409] | 0.1 nM | –
H[dS]QGTFTSDYSKYLDERRAKDFVQWLMNTK[γGlu][γGlu]C(oxa12‑cholesterol)-OH (lactam 16-20; reading uncertain) [OXM392] | 0.3 nM | 0.03 nM
B7 | 0.2 nM | –
B8 | 1.4 nM | –
B9 | > 1000 nM | 0.1 nM
B10 | 0.8 nM and 0.9 nM | –
B11 | 0.4 nM | 0.01 nM
B12 | 3.4 nM | 0.1 nM
B13 | 0.8 nM | 0.01 nM
B14 | 0.3 nM | 0.09 nM

molecular target: T2, human glucagon receptor; experiment: cell-based or functional assay; remark: another data set of the same source

Binder | GCGR + 10% plasma | GCGR EC50
HSQGTFTSDYSKYLDSRRAQDFVQWLMNTKRNRNNIAK (D-Ser at position 2; K(palmitoyl) at position 38; C-terminal amide) [OXM110] | 6.9 nM | 0.31 nM
B15 | – | 12.1 nM
